The assay deals with T1, GST-E2 fusion protein (HPV18 E2) (HPV18, UniProt P06790 1-365).
T1 sequence: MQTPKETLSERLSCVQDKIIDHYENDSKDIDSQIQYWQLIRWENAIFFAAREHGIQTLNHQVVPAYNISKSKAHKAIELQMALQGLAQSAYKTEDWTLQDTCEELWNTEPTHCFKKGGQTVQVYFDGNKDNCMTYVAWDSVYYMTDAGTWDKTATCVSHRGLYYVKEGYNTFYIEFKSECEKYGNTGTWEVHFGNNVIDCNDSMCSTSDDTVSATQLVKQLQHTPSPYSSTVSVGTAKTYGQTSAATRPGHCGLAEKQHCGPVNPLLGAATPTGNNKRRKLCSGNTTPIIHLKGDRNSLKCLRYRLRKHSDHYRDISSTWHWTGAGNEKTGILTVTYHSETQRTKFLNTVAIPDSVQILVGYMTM
The assay is described as follows: GST pull-down of 35S in vitro translated protein, autoradiography.

B1: caspase 8 catalytic domain (C8 CD) (other)
chain: EFSKERSSSLEGSPDEFSNGEELCGVMTISDSPREQDSESQTLDKVYQMKSKPRGYCLIINNHNFAKAREKVPKLHSIRDRNGTHLDAGALTTTFEELHFEIKPHDDCTVEQIYEILKIYQLMDHSNMDCFICCILSHGDKGIIYGTDGQEAPIYELTSQFTGLKCPSLAGKPKVFFIQACQGDNYQKGIPVETDSEEQPYLEMDLSSPQTRYIPDEADFLLGMATVNNCVSYRNPAEGTWYIQSLCQSLRERCPRGDDILTILTEVNYEVSNKDDKKNMGKQMPQPTFTLRKKLVFPSD
notes: range 180-480; also called caspase catalytic domain
Regarding B1, the binding result is reported as “no binding”.

The values above are taken from EP2017284A1 (INSTITUT PASTEUR, dated 2009).
